Values joined by “and” are separate entries in the source; they are usually repeats but may differ in a detail not shown here. Equal values may be shown once. Where a name gives a salt, the structure may show the parent alone. Read-outs that look alike come from different tables or passages of the source. One block for each molecule: values may come before it.
Key:
[1] = test system: SW480; experiment: Inhibitory activity of ADC on cell viability in vitro (CCK8), SW480; assay type: cell-based; conditions: Homo sapiens, SW480, 168 h, 7 days incubation
Description: (§1) HT29, NCI-H358 (HT29 and NCI-H358 are B7H3 positive tumor cells), SW480, A375, A549, and Calu-3 (Calu-3 is B7H3 negative tumor cells) tumor cells were digested by trypsin using conventional methods. Cells in the tube were collected and counted, then resuspended in the corresponding assay medium (containing 2% FBS), and added to a 96-well plate at 2000 to 5000 cells/well. 100 μL of ADC diluted in 2% FBS medium was added to the 96-well plate, with 3-fold serial dilution at an initial concentration of 150 µg/mL (12 concentration gradients). The plate was incubated at 37° C. under 5% CO2 for 7 days. 20 μL of CCK8 reagent was then added to each well, and the reaction was carried out for 2 to 6 hours. The plate was read on a microplate reader (detection wavelength: 450 nm). The test results are shown in Table 3-1, Table 3-2, and FIGS. 7A to 7E.

[2] = test system: A375; experiment: Inhibitory activity of ADC on cell viability in vitro (CCK8), A375; assay type: cell-based; conditions: Homo sapiens, A-375, 168 h, 7 days incubation
Description: as §1

[3] = test system: A549; experiment: Inhibitory activity of ADC on cell viability in vitro (CCK8), A549; assay type: cell-based; conditions: Homo sapiens, A549, 168 h, 7 days incubation
Description: as §1

[4] = test system: HT29; experiment: Inhibitory activity of ADC on cell viability in vitro (CCK8), HT29; assay type: cell-based; conditions: Homo sapiens, HT-29, 168 h, 7 days incubation, B7H3 positive tumor cells
Description: as §1

[5] = target: T1, human B7H3-4IgG-His protein (Homo sapiens, UniProt Q5ZPR3); experiment: ELISA protein affinity assay of anti-B7H3 antibody, human protein; assay type: binding; conditions: coated protein
T1 construct: amino acids at positions 27 to 461 (Uniport protein No. Q5ZPR3-1) of human 4Ig B7H3; 6xHis (C); made in house; host or cells: HEK293F (transient, PTT5 vector)
T1 sequence (Q5ZPR3 27-461): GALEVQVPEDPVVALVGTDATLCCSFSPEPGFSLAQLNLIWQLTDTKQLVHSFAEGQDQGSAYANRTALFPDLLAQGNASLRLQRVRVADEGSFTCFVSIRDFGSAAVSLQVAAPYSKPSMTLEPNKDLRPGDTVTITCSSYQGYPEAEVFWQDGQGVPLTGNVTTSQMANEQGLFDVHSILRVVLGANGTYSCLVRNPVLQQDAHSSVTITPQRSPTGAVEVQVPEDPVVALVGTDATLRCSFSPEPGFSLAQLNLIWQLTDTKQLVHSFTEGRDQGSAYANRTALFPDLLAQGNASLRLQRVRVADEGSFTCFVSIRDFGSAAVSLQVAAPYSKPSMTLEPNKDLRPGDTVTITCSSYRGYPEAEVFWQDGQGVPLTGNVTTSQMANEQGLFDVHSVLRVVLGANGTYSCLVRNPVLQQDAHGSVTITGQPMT
Description: The plate was washed five times with PBST. […] The absorbance was measured at 450 nm.

[6] = test system: MCF-7 tumor cells; experiment: Cell affinity assay of anti-B7H3 antibody by FACS, MCF-7; assay type: binding; conditions: flow cytometry
Description: (§2) B7H3 protein is highly expressed in a variety of solid tumor cells. The affinity of B7H3 full human antibody to tumor cells was tested by FACS. Specific experimental procedures: MCF-7 breast cancer cells, A549 human non-small cell lung cancer cells, and PC3 human prostate cancer cells grown to logarithmic phase were digested by trypsin, and resuspended to 5*10^5 cells/mL in PBS buffer containing 2% BSA. 100 μL of cell suspension was added to a 96-well plate. […] 100 μL of antibody suspension was then added into the 96-well plate and mixed homogeneously. The plate was incubated at 4° C. for 1 hour, washed twice with pre-cooled PBS at 300 μL/well each time, and centrifuged at 500 g for 5 minutes. 1:50 fluorescent secondary antibody APC anti-human IgG or PE anti-human IgG (purchased from Biolegend) was added at 100 μL/well and mixed homogeneously. The plate was incubated at 4° C. for 0.5 hours, washed twice with pre-cooled PBS at 300 μL/well each time, centrifuged at 500 g for 5 minutes, and resuspended in 500 μL of PBS. The average fluorescence signal value was measured by Beckman flow cytometer. The EC50 value was calculated from the average fluorescence signal value.

[7] = test system: A549 tumor cells; experiment: Cell affinity assay of anti-B7H3 antibody by FACS, A549; assay type: binding, human; conditions: flow cytometry; middle B7H3-expressing cells
Description: as §2

[8] = test system: PC-3 tumor cells; experiment: Cell affinity assay of anti-B7H3 antibody by FACS, PC-3; assay type: binding, human; conditions: flow cytometry
Description: as §2

[9] = cited from earlier work
[10] = target: B7H3 protein on human tumor cells (MCF-7, A549, PC-3, HT29) (human) (UniProt Q5ZPR3); experiment: flow cytometry on A549 tumor cells
[11] = target: B7H3 protein on human tumor cells (MCF-7, A549, PC-3, HT29) (human) (UniProt Q5ZPR3); experiment: flow cytometry on A549 tumor cells; remark: listed apart in the source
[12] = target: B7H3 protein on human tumor cells (MCF-7, A549, PC-3, HT29) (human) (UniProt Q5ZPR3); experiment: flow cytometry on PC-3 tumor cells
[13] = target: B7H3 protein on human tumor cells (MCF-7, A549, PC-3, HT29) (human) (UniProt Q5ZPR3); experiment: flow cytometry on MCF-7 tumor cells
[14] = target: B7H3 protein on human tumor cells (MCF-7, A549, PC-3, HT29) (human) (UniProt Q5ZPR3); experiment: flow cytometry on MCF-7 tumor cells; remark: listed apart in the source
[15] = target: T2, human B7H3-4IgG-His (human) (UniProt Q5ZPR3); experiment: ELISA, antigen coated on the plate, anti-human Fc-HRP detection
T2 sequence: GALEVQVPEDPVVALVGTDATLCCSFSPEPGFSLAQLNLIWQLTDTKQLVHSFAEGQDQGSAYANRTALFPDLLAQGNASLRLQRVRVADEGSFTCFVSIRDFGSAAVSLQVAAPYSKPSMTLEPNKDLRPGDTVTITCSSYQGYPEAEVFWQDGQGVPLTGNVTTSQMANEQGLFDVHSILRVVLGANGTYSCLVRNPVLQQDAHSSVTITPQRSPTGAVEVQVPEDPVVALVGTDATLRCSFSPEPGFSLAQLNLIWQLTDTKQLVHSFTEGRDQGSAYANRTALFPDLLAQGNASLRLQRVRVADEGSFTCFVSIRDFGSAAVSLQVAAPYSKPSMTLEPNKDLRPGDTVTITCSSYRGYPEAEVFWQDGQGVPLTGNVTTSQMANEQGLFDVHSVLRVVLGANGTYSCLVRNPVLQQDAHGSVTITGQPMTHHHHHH

[16] = target: monkey B7H3-4IgG-His (monkey); experiment: as above
[17] = target: T2, human B7H3-4IgG-His (human); experiment: as above; remark: listed apart in the source
[18] = target: monkey B7H3-4IgG-His (monkey); experiment: as above; remark: listed apart in the source

Sequence of B7H3 protein on human tumor cells (MCF-7, A549, PC-3, HT29) (human) (Q5ZPR3 29-534): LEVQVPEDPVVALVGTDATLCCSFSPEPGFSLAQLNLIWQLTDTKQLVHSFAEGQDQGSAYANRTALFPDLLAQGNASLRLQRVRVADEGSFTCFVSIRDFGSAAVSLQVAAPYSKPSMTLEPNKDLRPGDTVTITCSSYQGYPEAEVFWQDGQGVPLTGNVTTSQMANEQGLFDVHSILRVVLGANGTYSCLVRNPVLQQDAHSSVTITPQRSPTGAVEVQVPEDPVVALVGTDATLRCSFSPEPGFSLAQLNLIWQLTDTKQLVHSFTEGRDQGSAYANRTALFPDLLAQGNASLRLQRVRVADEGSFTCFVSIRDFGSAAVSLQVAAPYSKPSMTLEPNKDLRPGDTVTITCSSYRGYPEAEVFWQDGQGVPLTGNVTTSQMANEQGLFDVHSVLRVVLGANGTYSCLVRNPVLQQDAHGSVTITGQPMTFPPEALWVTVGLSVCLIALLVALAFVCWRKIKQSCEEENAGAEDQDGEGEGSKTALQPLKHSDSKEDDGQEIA

Molecule: C=C1C[C@@H]2CC[C@@]34C[C@H]5O[C@H]6[C@@H](O3)[C@H]3O[C@H](CC[C@@H]3O[C@H]6[C@H]5O4)CC(=O)C[C@@H]3[C@@H](OC)[C@@H](C[C@H](O)CN)O[C@H]3C[C@H]3O[C@@H](CC[C@@H]1O2)C[C@@H](C)C3=C [Eribulin, eribulin]
IC50 [1]: 1.38 nM
IC50 [2]: 1.14 nM
IC50 [3]: 0.31 nM
IC50 [4]: 0.2 nM

Molecule: C=C1C[C@@H]2CC[C@@]34C[C@H]5O[C@H]6[C@@H](O3)[C@H]3O[C@H](CC[C@@H]3O[C@H]6[C@H]5O4)CC(=O)C[C@@H]3[C@@H](OC)[C@@H](C[C@H](O)CN)O[C@H]3C[C@H]3O[C@@H](CC[C@@H]1O2)C[C@@H](C)C3=C [Eribulin mesylate]
maximum tolerated dose (MTD) ([9]; intravenous infusion on day 1, 8 and 15 of a 28-day cycle, patients): 1.4 mg/m^2
grade 3-4 adverse events: neutropenia ([9]; patients treated with eribulin mesylate): 64%

Second part, led by results:

EC50 [5]: 0.048 nM
EC50 ([6]; high B7H3-expressing cells): 1.71 nM and 1.36 nM
EC50 [7]: 1.86 nM and 1.05 nM
EC50 ([8]; low B7H3-expressing cells): 0.618 nM
Molecule: B7H3-C1: anti-B7H3 antibody numbered M30-H1-L4 in CN103687945B
MCF-7 tumor cells Maximum MFI [6]: 83992 and 63194
PC-3 tumor cells Maximum MFI [8]: 6436

EC50 [10]: 1.86 nM
Maximum MFI [10]: 8270
EC50 [11]: 1.05 nM
Maximum MFI [11]: 48000
EC50 [12]: 0.618 nM
Maximum MFI [12]: 6440
EC50 [13]: 1.71 nM
Maximum MFI [13]: 84000
EC50 [14]: 1.36 nM
Maximum MFI [14]: 63200
EC50 [15]: 0.048 nM
EC50 [16]: 0.167 nM
EC50 [17]: 0.0519 nM
EC50 [18]: 3.92 nM
B1: antibody B7H3-C1 (antibody, INN chains, looked up, V domains shown)
VH: QVQLVQSGAEVKKPGSSVKVSCKASGYTFTNYVMHWVRQAPGQGLEWMGYINPYNDDVKYNEKFKGRVTITADESTSTAYMELSSLRSEDTAVYYCARWGYYGSPLYYFDYWGQGTLVTVSS
VL: EIVLTQSPATLSLSPGERATLSCRASSRLIYMHWYQQKPGQAPRPLIYATSNLASGIPARFSGSGSGTDFTLTISSLEPEDFAVYYCQQWNSNPPTFGQGTKVEIK

Reference: patent US20250144229A1, “CONJUGATE OF ANTIBODY-ERIBULIN OR DERIVATIVE THEREOF, INTERMEDIATE THEREOF, PREPARATION METHOD THEREFOR, PHARMACEUTICAL COMPOSITION THEREOF AND USE THEREOF” (MEDLINK THERAPEUTICS (SUZHOU) CO., LTD., priority 2022, published 2025)
